We go through 2 molecules from patent US5831007, “Human receptor for interleukin-12” (Hoffmann-La Roche Inc., dated 1998).

The target of experiment [1] is Human IL-12 receptor subunit monomer (on murine CTLL transfectants, which only express monomers); monomer form … (human). In words: IL-12 binding to murine CTLL transfectants stably expressing the IL-12 receptor subunit (monomers only).
Experiment [2] has as its target T1, Recombinant human low affinity IL-12 receptor protein (clone No. 5) expressed in COS cells (human). In words: equilibrium binding of labeled IL-12 to COS cells electroporated with clone number 5, Scatchard, single site (FIG. 19A). How it is done: (§1) Binding assays with labeled IL-12 or labeled 2-4E6 antibody were run as described hereinabove under anti human IL-12 receptor antibody. The binding data were analyzed and Kd values were calculated according to Scatchard, using the LIGAND program discussed hereinabove under anti human IL-12 receptor antibody. In vivo labeling (6 hours) of COS cells (3 ×10^5 cells per 35 mm diameter tissue culture dish) with […] was performed 3 days after transfection as described (Molecular Cloning Manual). Cells were washed in PBS and lysed in CHAPS lysis buffer (10 mM CHAPS-300 mM Nacl-50 mM Tris-HCl pH 7.4-2 mg/ml lodoacetamide-0.17 mg/ml PMSF), precleared by incubation with protein G Sepharose beads (50 µl packed beads per ml, Genex) and normal mouse serum (25% final concentration) at 4° C. overnight. […]
(§2) IL-12 receptor cDNA (clone number 5) (SEQ ID NO:1) was electroporated into COS cells and equilibrium binding of labeled human and murine IL-12 to the cells was performed and analyzed as described (R. Chizzonite, et al., 1992, J. Immunol., 148:3117). […] After transformation by the method of Scatchard, the equilibrium binding data was best described by a single receptor site model as determined by the LIGAND program. The site numbers indicated in FIG. 19 are calculated assuming that all cells are expressing receptors. […]

In experiment [3] the target is T1, Recombinant human low affinity IL-12 …. In words: IL-12 binding to intact transfected COS cells; told in the discussion.
The target is the same in experiment [4]. In words: IL-12 binding to transfected COS cells; told in the discussion.
For experiment [5] the target is unchanged. In words: steady state binding of 125I-IL-12 to rIL-12R expressing COS cells, Scatchard (FIGS. 4A and 4B). Here is the method:
The characteristics of the protein bound by mAb 2-4E6 fulfilled standard criterion for an IL-12R and therefore 2-4E6 was used in an expression cloning strategy to isolate a cDNA coding for the human IL-12R. A cDNA coding for the human IL-12R was isolated by this method (U. Gubler and A. O. Chua, unpublished observations). The IL-12R cDNA was engineered in a mammalian cell expression vector, transfected into COS-7 cells and the specificity for binding of ^125I-IL-12 and ^125I-2-4E6 was determined. […] This low affinity IL-12 binding site corresponds to the low affinity site seen in the binding assays with human cells that naturally express IL-12R. The binding of ^125I-2-4E6 to, rIL-12R expressed in the COS cells is saturable and specific and identifies approximately 500,000 sites/cell (FIGS. 4C and 4D).
For FIGS. 4A and 4B, COS cells were transfected with a plasmid expressing human rIL-12R as. described. Three days later, transfected cells (1×10^4 cells) were incubated for 2 hrs at room temperature with increasing concentration of ^125I-IL-12 in the absence (o) or presence (□) of 50 nM unlabeled IL-12. Total (o) and non-specific (□) cell bound radioactivity were determined as described. Specific binding of ^125I-IL-12 (▲) was calculated by subtracting non-specific binding from total binding.

Experiment [6] shares this target. In words: equilibrium binding of labeled IL-12 to COS cells electroporated with clone number 5, Scatchard, single site (FIG. 19B). How it is done: as §1, §2

B1: Recombinant human IL-12 (Interleukin-12) (ligand)
chain 1: IWELKKDVYVVELDWYPDAPGEMVVLTCDTPEEDGITWTLDQSSEVLGSGKTLTIQVKEFGDAGQYTCHKGGEVLSHSLLLLHKKEDGIWSTDILKDQKEPKNKTFLRCEAKNYSGRFTCWWLTTISTDLTFSVKSSRGSSDPQGVTCGAATLSAERVRGDNKEYEYSVECQEDSACPAAEESLPIEVMVDAVHKLKYENYTSSFFIRDIIKPDPPKNLQLKPLKNSRQVEVSWEYPDTWSTPHSYFSLTFCVQVQGKSKREKKDRVFTDKTSATVICRKNASISVRAQDRYYSSSWSEWASVPCS
chain 2: RNLPVATPDPGMFPCLHHSQNLLRAVSNMLQKARQTLEFYPCTSEEIDHEDITKDKTSTVEACLPLELTKNESCLNSRETSFITNGSCLASRKTSFMMALCLSSIYEDLKMYQVEFKTMNAKLLMDPKRQIFLDQNMLAVIDELMQALNFNSETVPQKSSLEEPDFYKTKIKLCILLHAFRIRAVTIDRVMSYLNAS
A word on the Kd: it is the constant that tells how readily two partners part at equilibrium. Regarding B1, the Kd is at least 50 nM in experiment [1]; 3.4 nM in experiment [2]; 2 to 5 nM in experiment [3]; around 3 nM in experiment [4]; 2 to 6 nM in experiment [5].

B2: Recombinant murine IL-12 (ligand)
chain 1: MWELEKDVYVVEVDWTPDAPGETVNLTCDTPEEDDITWTSDQRHGVIGSGKTLTITVKEFLDAGQYTCHKGGETLSHSHLLLHKKENGIWSTEILKNFKNKTFLKCEAPNYSGRFTCSWLVQRNMDLKFNIKSSSSSPDSRAVTCGMASLSAEKVTLDQRDYEKYSVSCQEDVTCPTAEETLPIELALEARQQNKYENYSTSFFIRDIIKPDPPKNLQMKPLKNSQVEVSWEYPDSWSTPHSYFSLKFFVRIQRKKEKMKETEEGCNQKGAFLVEKTSTEVQCKGGNVCVQAQDRYYNSSCSKWACVPCRVRS
chain 2: RVIPVSGPARCLSQSRNLLKTTDDMVKTAREKLKHYSCTAEDIDHEDITRDQTSTLKTCLPLELHKNESCLATRETSSTTRGSCLPPQKTSLMMTLCLGSIYEDLKMYQTEFQAINAALQNHNHQQIILDKGMLVAIDELMQSLNHNGETLRQKPPVGEADPYRVKMKLCILLHAFSTRVVTINRVMGYLSSA
With B2, the Kd in experiment [6] is 2.1 nM.
